# Reference: article PMC3240604
# Target: purified wild-type N1 (C-terminal His tag) (vaccinia virus) (UniProt P17361)
# Assay: SEC-MALS
substance,measurement,value
purified wild-type N1 (C-terminal His tag) (from UniProt P17361) (natural protein),stoichiometry N,2
